From patent US10969392B2, “Methods and systems for predicting response to immunotherapies for treatment of cancer” (Vanderbilt University, priority 2015, dated 2021) come the findings set out here.

Holding throughout (type): cell-based, human
Assay [1] concerns melanoma cell lines. Put plainly: IFNγ stimulation of melanoma cell lines, flow cytometry for HLA-DR and PD-L1. As to conditions: for HLA-DR surface expression: 100 ng/mL; for HLA-DR expression by flow cytometry: Example 5. On the procedure:
(§1) FIGS. 3A-F show characterization of MHC-II(+) melanoma cell lines. Melanoma cell lines were treated with IFNy for 24 h before collection and live-cell staining and flow cytometry analysis for (A) MHC-I (HLA-A/B/C), (B) MHC-II (HLA-DR), and (C) PD-L1. Bars represent mean ±S.E.M. for at least three experiments (D) Representative flow plots from (C). (E) Western blot analysis of melanoma cell lines after 24 or 48 h of IFNy stimulation. (F) Phosphorylation of STAT1 (top row) and STAT5 (bottom row) in melanoma cell lines at 15 min after IFNy stimulation. Histograms were coloured according to the arcsinh transformed ratio or MFI medians relative to the table minimum value.
FIGS. 4A-D show graphs illustrating mean expression levels of MHC-I, MHC-II, and PD-L1 at baseline and after IFNy stimulation. Melanoma cell lines were treated with 100 ng IFNy for 24 hr (shown as percentage positive in FIGS. 2A-C) prior to harvest and live-cell staining and flow cytometry analysis for (A) MHC-I/HLA-A/B/C, (B) MHC-II/HLA-DR, and (C) PD-L1. Bars represent mean fluorescence intensity ±SEM for 3 experiments. (D) Histograms of HLA-DR surface expression over an extended (24-72 hr) IFNy treatment, as assessed by flow cytometry.
Cell surface expression mirrored mRNA expression patterns; MHC-I (HLA-A/B/C) was expressed ubiquitously among all cell lines under both basal and stimulated conditions, while MHC-II (HLA-DR) was present only on the intermediate/Ib (SKMEL5 and SKMEL28) and high/Ia cell lines (WM115 and A375; FIGS. 3A-C and 4A-D). […] The high (Ia) WM115 cell line was essentially 100% positive for HLA-DR at both basal and stimulated conditions.
Standard Flow Cytometry. Flow cytometry was performed using the following antibodies: HLA-DR/PE-Cy7 (Biolegend, clone L243. 1:20). CD274/PD-L1/APC (Biolegend, clone 29E.2A3, 1:200) and HLA-A/B/C-Alexa Fluor488 (1:100, Biolegend, clone W6/32) mouse MHC-II (I-A/I-E 1:20 Biolegend, clone M5/114.15.2). DAPI was used as a viability dye. Samples were analyzed on an Aria III laser system (BD Biosciences)
Cell and tumor culture. SKMEL-28 and WM115 cell lines were obtained from Dr. Kimberly Dahlman (Vanderbilt University), CHL-1 and HMCB melanoma cell lines were obtained from the laboratory of William Pao (Vanderbilt University). Cell line nature was not directly authenticated, but protein marker expression was consistent with published HLA-DRA mRNA expression patterns (CCLE). Cell lines were confirmed mycoplasma-free and cultured in DMEM containing 10% FBS. Stimulation with recombinant human IFNγ (R&D Systems) was performed at 100 ng/mL. For PDX models and ex-vivo organotypic culture, tumors were freshly resected and sectioned using an Alto tissue matrix sectioner (Roboz Surgical, Gaithersburg, Md.).
Methods. MHC-I/II mRNA was profiled across 60 MEL cell lines. The transcriptional characteristics of MHC-II+ cell lines were analyzed by Gene Set Analysis. Cell surface expression of MHC-I and MHC-II was confirmed by flow cytometry (FC) in a subset of cell lines under basal and stimulated (IFNγ) conditions. In 26 tumor samples from αPD-1 treated MEL patients, immunohistochemistry (IHC) was performed for HLA-DR (MHC-II) or HLA-A (MHC-I), SOX10, CD4 and CD8. IHC results were correlated with response and progression-free survival (PFS).
(In general: Flow cytometry measures light scatter and fluorescence of single cells or particles in a stream.)

The subject of assay [2] is melanoma cell lines. Kind of assay: IFNγ stimulation of melanoma cell lines, Western blot and phospho-flow (STAT1, STAT5, CIITA). On the procedure:
as §1
Immunoblotting Immunoblotting was performed as previously described^32 Briefly, cells were washed in cold phosphate-buffered saline, collected and lysed in 1×RIPA buffer (50 mM Tris (pH 7.4), 1% NP-40, 150 mM NaCl, 1 mM EDTA, 0.1% SDS, 0.25% sodium deoxycholate, 5 mM NaF, 5 mM Na3VO4, 10% glycerol, […] phenylmethyl-sulphonylfluoride and protease inhibitors) for 30 min on ice. Lysates were sonicated for 2-3 s to shear DNA and cleared by centrifugation at 13,200 r.p.m. for 15 min. Protein concentrations of the lysates were determined by BCA assay (Bio-Rad, Hercules, Calif.). Samples were separated by SDS-PAGE and transferred to nitrocellulose membrane. Membranes were blocked with 5% non-fat dry milk or 5% bovine serum albumin in tris-buffered saline with 0.1% Tween-20 for 1 h at room temperature and then incubated overnight at 4° C. with the appropriate antibody as indicated. Following incubation with appropriate horseradish peroxidase-conjugated secondary antibodies, proteins were visualized using an enhanced chemiluminescence detection system. […]
Phospho-flow cytometry. […] Samples were analyzed on a LSRII system (BD Biosciences). […]
A general note: Immunoblotting shows a protein as a band on a membrane.

The test system of assay [3] is PDX tumors from melanoma patients PT1 and PT2. Put plainly: Ex vivo organotypic culture of PDX tumour slices with or without IFNγ, Western blot for HLA-DR. As to conditions: PT1 (anti-PD-1 non-responder) and PT2 (responder) PDX, 24-48 h. From the text:
FIGS. 6A-D show Ex vivo culture of tumours derived from anti-PD-1-responding and non-responding patients identifies heterogeneity in interferon response. (A) Patient tumour blocks stained for HLA-DR (brown) and SOX10 (pink) at low (scale bar, 500 um) and high magnification (scale bar, […]); PT1: anti-PD-1 non-responder and PT2: anti-PD-1 responder. (B) Experimental schema. (C) Schema and images of PDX tissue sections (ex vivo organotypic culture). (D) Western blot analysis of tissue sections cultured in the presence or absence of IFNy for 24-48 h.
To test this hypothesis, patient-derived xenograft (PDX) models were utilized from the tumor resections of two melanoma patients who subsequently received anti-PD1 therapy; patient 1 (PT1; non-responder, 0% HLA-DR-positive, class II/III) and patient 2 (PT2; partial responder, heterogeneous 15% HLA-DR-positive, class Ib) (FIG. 6A). […] The resected tumors from PT1 and PT2 were serially transplanted to athymic nu/nu mice, which are highly deficient in functional T cells, ruling out a possible source of IFNγ (FIG. 6B). […] Thus, HLA-DR may be a marker of IFNγ activity in the microenvironment of some (but not all) tumors.
Cell and tumor culture. SKMEL-28 and WM115 cell lines were obtained from Dr. Kimberly Dahlman (Vanderbilt University), CHL-1 and HMCB melanoma cell lines were obtained from the laboratory of William Pao (Vanderbilt University). […]

Entries after “also recorded” stand apart in the source; their conditions may differ.

B1: IFNγ: recombinant human IFNγ (R&D Systems) used at 100 ng/mL to stimulate melanoma cell lines and tumour slices (protein, UniProt P01579 24-161, looked up)
Interferon gamma: QDPYVKEAENLKKYFNAGHSDVADNGTLFLGILKNWKEESDRKIMQSQIVSFYFKLFKNFKDDQSIQKSVETIKEDMNVKFFNSNKKKRDDFEKLTNYSVTDLNVQRKAIHELIQVMAELSPAAKTGKRKRSQMLFRG
For the molecule B1, the HLA-DR surface expression entry is “No significant increase” in assay [1] (CHL-1 or HMCB cells, up to 72 hrs) and “potently induced” in assay [1] (SKMEL28 (intermediate/Ib), 25% positive at baseline, 24 h). Further, the “HLA-DR expression by flow cytometry” value in assay [1] (MHC-II+ (mRNA) cell lines) was “constitutive and inducible”; in assay [1] (MHC-II− cells), “did not express or induce”. Besides, the PD-L1 expression result in assay [1] (all cell lines tested, 24 h stimulation) was “significantly upregulated; also recorded: potently induced”. Also, the CIITA expression entry in assay [2] (Western blot, 24 or 48 h stimulation) is “only induced in HLA-DR+Ia/Ib cells”. Further, in assay [2] (all cell lines, Western blot 24 or 48 h, phospho-flow 15 min), the STAT1 activation result is recorded as “robustly activated”. Also, the STAT5 activation entry in assay [2] (phospho-flow, 15 min stimulation, 100 ng/mL) was “preferentially activated by IFNγ in MHC-II(−) cell lines”. Further, the “HLA-DR upregulation in cultured tissue slices” value in assay [3] is listed as “only the PT2 PDX model (anti-PD-1 responder) upregulated HLA-DR”.
